How the values were obtained:
CD45 ECD = target: T1, CD45 ECD (Homo sapiens, UniProt P08575); assay: Sedimentation velocity, analytical ultracentrifuge; type: binding; details: for Experimental S value: molar 1:1 mixture
T1 construct: extracellular domain of CD45 (UniProtKB—P08575, residue positions 225-573); TEV cleavage site (C); 10-His tag (C); made in house; host or cells: HEK293
T1 sequence (P08575 225-573): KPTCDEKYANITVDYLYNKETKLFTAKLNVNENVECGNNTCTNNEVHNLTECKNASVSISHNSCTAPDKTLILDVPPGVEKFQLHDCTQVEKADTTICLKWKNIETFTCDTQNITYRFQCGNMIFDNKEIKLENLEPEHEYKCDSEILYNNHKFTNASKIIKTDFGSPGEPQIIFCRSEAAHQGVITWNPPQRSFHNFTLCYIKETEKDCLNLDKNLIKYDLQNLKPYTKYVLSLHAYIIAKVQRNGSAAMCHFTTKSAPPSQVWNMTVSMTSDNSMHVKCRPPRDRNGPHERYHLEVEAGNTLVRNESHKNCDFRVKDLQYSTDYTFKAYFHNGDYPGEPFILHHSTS
Procedure: CD45 ECD and 4133-6294 BYbe were mixed in a molar ratio of 1:1 and incubated for 1 hour at room temperature. The molar ratio was determined using the predicted mass of 4133-6294 BYbe at 73.5 kDa and the mass of CD45 ECD as determined by mass photometry at 62 kDa.
The CD45 ECD-4133-6294 BYbe mixture, CD45 ECD only or 4133-6294 BYbe only were loaded into cells with 2-channel charcoal-epon centrepieces with 12 mm optical path length and glass quartz glass windows. The corresponding buffer was loaded into the reference channel of each cell (the instrument functions like a dual beam spectrometer). Those loaded cells were then placed into an AN-60Ti analytical rotor, loaded into a Beckman-coulter Optima analytical ultracentrifuge and brought to 20° C. The rotor was then brought to 3,000 rpm and the samples were scanned at 280 nm to confirm proper cell loading and appropriate adjustment of the laser, via the laser delay setting. The rotor was then brought to the final run speed of 50,000 rpm. Scans were recorded every 20 seconds for 8 hours. Radial scans ranged from 5.75 to 7.25 cm.
The data were analysed using the c(s) method developed by peter Shuck at the N.I.H and implemented in his analysis program SEDFIT version 14.6e. In this approach many raw data scans directly fitted (36,000 data points for each sample in this case) to derive the distribution of sedimentation coefficients, while modelling the influence of diffusion on the data in order to enhance the resolution. The method works by assigning a diffusion coefficient to each value of sedimentation coefficient based on an assumption that all species have the same overall hydrodynamic shape (with shape defined by the frictional coefficient relative to that for a sphere, f/f0). The f/f0 values were varied to find the best overall fit of the data for each sample. A maximum entropy regularization probability of 0.95 was used and time invariant noise was removed. The analysis was performed using the standard solvent model.

M2 macrophages = assay: Caspase-3/7 induction, IncuCyte, M2; type: cell-based, human; details: over 6 days, BYbe 250-2 nM, Camptothecin, Staurosporine 5 μM
Procedure: Human PBMC derived from blood leukocyte platelet-apheresis cones (NHSBT Oxford) were banked as frozen aliquots. Prior to an assay being performed, 2 vials of frozen cells, each containing 5×10^7 cells in 1 ml, were thawed in a 37° C. water bath and then added to 50 ml complete media (RPMI 1640+2 mM GlutaMAX+1% Pen/Strep, all previous supplied by Invitrogen, +10% Fetal Bovine Serum (FBS), Sigma Aldrich). Cells were spun (500 g, 5 min, at RT) and re-suspended in 30 ml complete media to wash and spun again. Cells were resuspended in 20 ml MACS buffer (PBS, pH 7.2, 0.5% bovine serum albumin (BSA), and 2 mM EDTA, Sigma Aldrich) and counted on a ChemoMetec NucleoCounter NC-3000 to determine concentration and viability. PBMCs from one donor (UCB-Cones 802) was used in this assay. Monocyte isolation was performed using the Pan Monocyte Isolation Kit (Miltenyi Biotec, cat no. 130-096-537) and LS columns (Miltenyi Biotec, cat no 130-042-401) according to manufacturer's instructions. 100 μl of cells were removed and stored on ice to check monocyte purity post isolation. Isolated cells were stained with BV421 mouse anti-human CD14 (BD Biosciences, cat no. 563743) to check for purity of monocytes using FACS. M-CSF (Sigma Aldrich, cat no. SRP3110) and GM-CSF (R&D Systems, cat no. 215-GM/CF) were prepared at 100 μg/ml. Cells were prepared in M1 media (complete media+50 ng/ml GM-CSF) or M2 media (complete media+50 ng/ml M-CSF) at a concentration of 2.5×10^5 cells/ml. 200 μl cells were plated into two Corning 96 well Black polystyrene microplates (Sigma Aldrich) and incubated at 37° C., 5% CO2. Following a 3-day incubation at 37° C., 5% CO2, the plate was spun (500 g, 5 min, RT), buffer was aspirated, the cells were washed once with PBS and then resuspended in 200 μL of M1 media or M2 media. […] The caspase dye was measured with the green laser (350 ms) and the cytotox dye was measured with a red laser (650 ms). The green dye signal was analysed using Incucyte® Zoom2016B. […]

B1: 4133-6294 BYbe: anti-CD45 BYbe (Fab-scFv): 4133 Fab HC-G4S linker-6294 scFv heavy chain paired with 4133 light chain (antibody)
heavy: QEQLVESGGGLVQPEGSLTLTCTASGFSFSGNYYMCWVRQAPGKGLEWIGCLYTGSSGSTYYASWAKGRFTISKTSSTTVTLQMTSLTAADTATYFCARDLGYEIDGYGGLWGQGTLVTVSSGQPKAPSVFPLAPCCGDTPSSTVTLGCLVKGYLPEPVTVTWNSGTLTNGVRTFPSVRQSSGLYSLSSVVSVTSSSQPVTCNVAHPATNTKVDKTVAPSTCSKPGGGGSGGGGSEVQLVESGAELARPGASVKMSCKASGYTFTSYTMHWVKQRPGQCLEWIGYINPSSGYTEYNQKFKDKTTLTADKSSSTAYLQLSSLTSEDSAVYYCARVGDGFYPSWLAYWGQGTLVTVSSGGGGSGGGGSGGGGSGGGGSDIQMTQSPKFLLVSAGDRVTITCKASQSVRNDVAWYQQKPGQSPKLLIFYASKRYTGVPDRFTGSGYGTDFTFTISTVQAEDLAVYFCQQDYSSPTTFGCGTKLEIK
light: AQVLTQTPSPVSAVVGGTVSISCQASQSVYNNNNLSWYQQKPGQPPKLLIYDASKLASGVPSRFKGSGSGTQFTLTISGVQCDDAATYYCLGGYYSSGWYFAFGGGTKVVVKRTPVAPTVLIFPPAADQVATGTVTIVCVANKYFPDVTVTWEVDGTTQTTGIENSKTPQNSADCTYNLSSTLTLTSTQYNSHKEYTCKVTQGTTSVVQSFNRGDC
Experimental S value (CD45 ECD; CD45 1:1 BYbe complex): 6.9 S | Percentage of area under the curve (CD45 ECD; CD45 1:1 BYbe in molar 1:1 mixture): 11.99% | Experimental S value (CD45 ECD; CD45 2:1 BYbe complex): 7.15 S | Experimental S value (CD45 ECD; CD45 2:2 BYbe complex): 8.78 S | Percentage of area under the curve (CD45 ECD; CD45 2:2 BYbe in molar 1:1 mixture): 37.7% | Experimental S value (CD45 ECD; CD45 3:3 BYbe complex): 10.04 S | Percentage of area under the curve (CD45 ECD; CD45 3:3 BYbe in molar 1:1 mixture): 35.7% | Experimental S value (CD45 ECD; CD45 4:3 BYbe complex): 11.12 S | Experimental S value (CD45 ECD; CD45 4:4 BYbe complex): 13.3 S | Percentage of area under the curve (CD45 ECD; CD45 4:4 BYbe in molar 1:1 mixture): 3.46% | Percentage of area under the curve (CD45 ECD; CD45 (uncomplexed) in molar 1:1 mixture of CD45 ECD and BYbe): 9.21% | levels of Caspase-3/7 (M2 macrophages): in-line with NegCtrl BYbe-treated and untreated macrophages

Reference: patent publication US20230374148A1, “BINDING MOLECULES THAT MULTIMERISE CD45” (UCB BIOPHARMA SRL, priority 2020, published 2023)
